Test results published in publication PMC8828381.

Biological target: biotinylated SARS-CoV-2-S1 (SINO BIOLOGICAL #40591-V08H-B) (SARS-CoV-2)
Test: SPR

integrin α5β1 extracellular domain with flag tag on α5 and His tag on β1 (from UniProt P08648;P05556) (complex)
Kd: 31 nM
